In patent publication US20040091475A1 (Chugai, published 2004):

Experiments:
[1] = target: T1, human Integrin Associated Protein (IAP) expressed on mouse leukemia cell line L1210 (human, UniProt Q08722 19-323); assay: flow cytometry on L1210 cells expressing human IAP; COS7 culture supernatant; mouse anti-FLAG antibody, then FITC-labeled anti-mouse IgG antibody
T1 construct: whole, on cells; also called human IAP; hIAP/L1210
Procedure: Flow cytometry was performed using the aforementioned COS7 cells culture supernatant to measure the binding to the antigen. The culture supernatant of the COS7 cells expressing the reconstructed single chain Fv of antibody MABL-2 or the culture supernatant of COS7 cells transformed with pCHO1 vector as a control was added to 2×10⁵ cells of the mouse leukemia cell line L1210 expressing human Integrin Associated Protein (IAP) or the cell line L1210 transformed with pCOS1 as a control. After incubating on ice and washing, the mouse anti-FLAG antibody (SIGMA) was added. Then the cells were incubated and washed. Then, the FITC labeled anti-mouse IgG antibody (BECTON DICKINSON) was added thereto and the cells were incubated and washed again. Subsequently, the fluorescence intensity was measured using the FACScan apparatus (BECTON DICKINSON).

[2] = target: T2, secretion-type human IAP antigen (human, UniProt Q08722 19-142, limits assumed); assay: competitive ELISA: secretion-type human IAP captured on anti-FLAG antibody; competitor biotinized MABL-2 antibody at 100 ng/ml; serial dilutions of COS7 culture supernatant (x axis: dilution ratio of CM, no concentration unit)
T2 construct: captured on plates coated with anti-FLAG antibody
Procedure: The binding activity of the reconstructed single chain Fv of antibody MABL-2 was measured based on the inhibiting activity against the binding of mouse monoclonal antibodies to the antigen.
The anti-FLAG antibody adjusted to 1 μg/ml was added to each well on 96-well plate and incubated at 37° C. for 2 hours. After washing, blocking was performed with 1% BSA-PBS. After incubating and washing at a room temperature, the culture supernatant of COS7 cells into which the secretion-type human IAP antigen gene (SEQ ID No. 26) had been introduced was diluted with PBS into twofold volume and added to each well. After incubating and washing at a room temperature, a mixture of 50 μl of the biotinized MABL-2 antibody adjusted to 100 ng/ml and 50 μl of sequentially diluted supernatant of the COS7 cells expressing the reconstructed single chain Fv of antibody MABL-2 were added into each well. After incubating and washing at a room temperature, the alkaline phosphatase-conjugated streptoavidin (Zymed) was added into each well. After incubating and washing at a room temperature, the substrate solution (SIGMA) was added and absorbance of the reaction mixture in each well was measured at 405 nm.

T2 sequence (Q08722 other isoform, or with tags, fused parts or gaps limits assumed): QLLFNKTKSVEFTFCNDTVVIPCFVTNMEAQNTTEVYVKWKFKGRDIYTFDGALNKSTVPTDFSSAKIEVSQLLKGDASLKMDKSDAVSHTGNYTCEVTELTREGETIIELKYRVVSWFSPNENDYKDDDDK
T1 sequence (Q08722 19-323): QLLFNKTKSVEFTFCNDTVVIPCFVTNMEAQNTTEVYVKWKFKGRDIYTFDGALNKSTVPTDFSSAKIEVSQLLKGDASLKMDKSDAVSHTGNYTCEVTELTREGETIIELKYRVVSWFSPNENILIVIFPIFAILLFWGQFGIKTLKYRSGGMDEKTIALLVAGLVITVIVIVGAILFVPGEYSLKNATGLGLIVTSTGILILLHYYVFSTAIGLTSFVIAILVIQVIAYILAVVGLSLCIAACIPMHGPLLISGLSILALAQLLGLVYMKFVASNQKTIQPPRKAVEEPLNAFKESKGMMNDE

B1: reconstructed single chain Fv of antibody MABL-2 (plasmid pCHOM2), culture supernatant of COS7 cells (scFv)
scFv: QVQLQQSGPELVKPGASVKMSCKASGYTFANHVIHWVKQKPGQGLEWIGYIYPYNDGTKYNEKFKDKATLTSDKSSTTAYMDLSSLASEDSAVYYCARGGYYTYDDWGQGTTLTVSSGGGGSGGGGSGGGGSDVVMTQSPLSLPVSLGDQASISCRSSQSLVHSNGKTYLHWYLQKPGQSPKLLIYKVSNRFSGVPDRFSGSGSVTDFTLMISRVEAEDLGVYFCSQSTHVPYTFGGGTKLEIKDYKDDDDK
notes: VH-(Gly4Ser)3-VL-FLAG; Unfractionated supernatant (monomer and dimer not separated); also called MABL2-scFv; MABL2-scFv/COS7
B1: binds [1]; binds [2].
